Laboratory results as given in US20120308522A1.
Values belong to the molecule of their own block, whether it stands above or below them.

Key:
[1] = biological target: high-affinity receptors for VEGF in HUVECs; test: cell-based or functional assay
[2] = biological target: Flt-1 VEGF receptor (human (on HUVEC)) (UniProt P17948); test: cell-based or functional assay
Sequence of UniProt P17948 (P17948 27-1338): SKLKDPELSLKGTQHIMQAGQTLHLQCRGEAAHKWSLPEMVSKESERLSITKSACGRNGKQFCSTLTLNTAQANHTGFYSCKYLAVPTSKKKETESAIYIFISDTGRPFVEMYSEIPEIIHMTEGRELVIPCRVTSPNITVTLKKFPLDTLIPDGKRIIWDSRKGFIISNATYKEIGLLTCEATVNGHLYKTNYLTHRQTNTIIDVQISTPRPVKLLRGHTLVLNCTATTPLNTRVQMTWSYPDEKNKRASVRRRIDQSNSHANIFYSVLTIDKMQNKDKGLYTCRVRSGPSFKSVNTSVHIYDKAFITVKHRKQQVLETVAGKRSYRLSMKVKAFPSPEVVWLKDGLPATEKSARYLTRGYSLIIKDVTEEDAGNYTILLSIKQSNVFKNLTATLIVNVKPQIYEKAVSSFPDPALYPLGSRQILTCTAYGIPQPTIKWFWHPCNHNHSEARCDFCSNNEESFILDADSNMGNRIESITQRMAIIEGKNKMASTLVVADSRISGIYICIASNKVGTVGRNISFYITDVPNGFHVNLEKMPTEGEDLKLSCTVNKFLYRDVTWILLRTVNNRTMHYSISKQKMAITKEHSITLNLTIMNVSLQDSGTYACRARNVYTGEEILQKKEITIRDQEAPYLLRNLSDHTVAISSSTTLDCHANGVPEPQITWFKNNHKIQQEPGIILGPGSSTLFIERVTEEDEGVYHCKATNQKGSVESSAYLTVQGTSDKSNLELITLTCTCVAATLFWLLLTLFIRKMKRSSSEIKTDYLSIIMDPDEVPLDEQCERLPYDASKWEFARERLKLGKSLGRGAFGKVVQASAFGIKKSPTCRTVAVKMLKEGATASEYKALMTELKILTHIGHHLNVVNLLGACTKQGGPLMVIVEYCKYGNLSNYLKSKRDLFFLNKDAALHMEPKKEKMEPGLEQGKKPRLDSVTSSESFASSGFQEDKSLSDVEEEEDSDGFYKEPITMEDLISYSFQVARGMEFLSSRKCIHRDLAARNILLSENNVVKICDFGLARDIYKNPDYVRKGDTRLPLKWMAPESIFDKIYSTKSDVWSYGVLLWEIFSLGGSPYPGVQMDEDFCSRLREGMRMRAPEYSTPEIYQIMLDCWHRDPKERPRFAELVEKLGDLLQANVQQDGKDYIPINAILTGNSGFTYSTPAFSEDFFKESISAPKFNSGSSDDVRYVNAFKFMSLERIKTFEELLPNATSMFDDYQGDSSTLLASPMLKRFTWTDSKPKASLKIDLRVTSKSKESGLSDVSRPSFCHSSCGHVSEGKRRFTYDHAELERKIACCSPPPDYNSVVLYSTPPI

arachidonic acid release from prelabelled HUVEC, concentration of maximum effect [1]: 10 to 20 ng/mL | arachidonic acid release from prelabelled HUVEC, half-maximum effect [1]: 2.5 to 5 ng/mL | mean increase in release of labelled arachidonic acid above basal level [1]: 1.6 fold
Molecule: recombinant human VEGF (vascular endothelial growth factor) (from UniProt P15692 27-191) (ligand)

mean fold increase in 6-keto PGF1a above control, 60 min with 60 ng/ml P1GF [2]: 1.3 fold
B1: recombinant placenta growth factor (P1GF) (ligand, UniProt P49763-2 21-149, looked up)
chain: AVPPQQWALSAGNGSSEVEVVPFQEVWGRSYCRALERLVDVVSEYPSEVEHMFSPSCVSLLRCTGCCGDENLHCVPVETANVTMQLLKIRSGDRPSYVELTFSQHVRCECRPLREKMKPERCGDAVPRR
